Four substances from patent publication US20030195338A1 can be followed below.

In one experiment the target is T1, TNFβ (UniProt P01374).
T1 sequence (looked up): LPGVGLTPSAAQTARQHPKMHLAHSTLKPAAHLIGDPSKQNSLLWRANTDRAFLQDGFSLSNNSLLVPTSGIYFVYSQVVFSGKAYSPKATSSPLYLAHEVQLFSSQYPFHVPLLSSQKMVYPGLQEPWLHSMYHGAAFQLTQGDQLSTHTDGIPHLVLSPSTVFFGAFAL
The experiment is described as follows: cell-based or functional assay.

A further experiment addresses TNFα (UniProt P01375). The experiment is described as follows: cell-based or functional assay.

Sequence of TNFα (P01375 77-233 limits assumed): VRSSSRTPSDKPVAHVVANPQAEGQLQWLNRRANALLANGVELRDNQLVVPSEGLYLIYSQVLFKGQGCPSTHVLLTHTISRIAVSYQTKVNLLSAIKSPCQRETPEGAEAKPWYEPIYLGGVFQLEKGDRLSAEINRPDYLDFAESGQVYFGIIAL
Sequence of simple fusion dimeric protein [TNFR1/Fc]2 (Fc fusion) (chain): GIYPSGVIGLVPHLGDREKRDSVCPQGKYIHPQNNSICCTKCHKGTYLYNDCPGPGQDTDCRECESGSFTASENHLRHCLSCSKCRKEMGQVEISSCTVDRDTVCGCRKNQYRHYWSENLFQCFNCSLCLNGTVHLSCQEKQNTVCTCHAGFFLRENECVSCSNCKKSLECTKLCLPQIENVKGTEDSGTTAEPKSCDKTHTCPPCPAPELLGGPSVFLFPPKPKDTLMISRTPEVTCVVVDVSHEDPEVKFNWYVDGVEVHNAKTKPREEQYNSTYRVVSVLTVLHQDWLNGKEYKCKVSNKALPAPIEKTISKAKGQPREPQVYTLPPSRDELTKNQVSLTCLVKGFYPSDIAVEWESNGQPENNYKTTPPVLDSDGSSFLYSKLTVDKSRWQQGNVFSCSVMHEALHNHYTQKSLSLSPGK
Sequence of simple fusion dimeric protein [TNFR2/Fc]2 (Fc fusion) (chain): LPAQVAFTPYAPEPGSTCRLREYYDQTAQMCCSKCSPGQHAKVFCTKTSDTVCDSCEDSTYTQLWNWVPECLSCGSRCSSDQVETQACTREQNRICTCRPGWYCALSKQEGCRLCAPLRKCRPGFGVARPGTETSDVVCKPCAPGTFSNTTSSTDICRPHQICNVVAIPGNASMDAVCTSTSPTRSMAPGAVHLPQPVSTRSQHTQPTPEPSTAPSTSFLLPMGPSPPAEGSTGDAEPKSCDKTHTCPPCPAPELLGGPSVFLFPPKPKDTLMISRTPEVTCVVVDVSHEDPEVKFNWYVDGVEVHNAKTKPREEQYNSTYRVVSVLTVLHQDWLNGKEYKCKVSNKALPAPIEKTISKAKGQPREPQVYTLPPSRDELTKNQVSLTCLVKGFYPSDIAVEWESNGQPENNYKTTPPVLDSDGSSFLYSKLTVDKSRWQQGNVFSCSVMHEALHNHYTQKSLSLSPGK
Sequence of concatameric fusion dimeric protein [TNFR1-TNFR1/Fc]2 (Fc fusion) (chain): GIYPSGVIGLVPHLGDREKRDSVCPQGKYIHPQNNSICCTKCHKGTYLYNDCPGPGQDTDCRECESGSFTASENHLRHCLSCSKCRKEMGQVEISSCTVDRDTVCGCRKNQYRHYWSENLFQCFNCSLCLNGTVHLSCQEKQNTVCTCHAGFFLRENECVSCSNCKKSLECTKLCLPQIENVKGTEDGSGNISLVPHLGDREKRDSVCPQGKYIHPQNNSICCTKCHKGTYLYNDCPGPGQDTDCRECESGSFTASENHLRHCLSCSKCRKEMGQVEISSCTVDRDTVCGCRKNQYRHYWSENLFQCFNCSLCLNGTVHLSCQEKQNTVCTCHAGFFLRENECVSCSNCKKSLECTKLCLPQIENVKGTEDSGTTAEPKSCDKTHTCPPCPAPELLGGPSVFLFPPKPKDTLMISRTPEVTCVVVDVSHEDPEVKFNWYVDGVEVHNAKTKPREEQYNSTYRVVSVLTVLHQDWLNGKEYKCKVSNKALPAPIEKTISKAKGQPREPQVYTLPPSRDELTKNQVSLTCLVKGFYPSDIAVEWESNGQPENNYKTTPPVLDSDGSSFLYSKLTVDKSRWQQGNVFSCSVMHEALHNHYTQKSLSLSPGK
Sequence of concatameric fusion dimeric protein [TNFR2-TNFR2/Fc]2 (Fc fusion) (chain): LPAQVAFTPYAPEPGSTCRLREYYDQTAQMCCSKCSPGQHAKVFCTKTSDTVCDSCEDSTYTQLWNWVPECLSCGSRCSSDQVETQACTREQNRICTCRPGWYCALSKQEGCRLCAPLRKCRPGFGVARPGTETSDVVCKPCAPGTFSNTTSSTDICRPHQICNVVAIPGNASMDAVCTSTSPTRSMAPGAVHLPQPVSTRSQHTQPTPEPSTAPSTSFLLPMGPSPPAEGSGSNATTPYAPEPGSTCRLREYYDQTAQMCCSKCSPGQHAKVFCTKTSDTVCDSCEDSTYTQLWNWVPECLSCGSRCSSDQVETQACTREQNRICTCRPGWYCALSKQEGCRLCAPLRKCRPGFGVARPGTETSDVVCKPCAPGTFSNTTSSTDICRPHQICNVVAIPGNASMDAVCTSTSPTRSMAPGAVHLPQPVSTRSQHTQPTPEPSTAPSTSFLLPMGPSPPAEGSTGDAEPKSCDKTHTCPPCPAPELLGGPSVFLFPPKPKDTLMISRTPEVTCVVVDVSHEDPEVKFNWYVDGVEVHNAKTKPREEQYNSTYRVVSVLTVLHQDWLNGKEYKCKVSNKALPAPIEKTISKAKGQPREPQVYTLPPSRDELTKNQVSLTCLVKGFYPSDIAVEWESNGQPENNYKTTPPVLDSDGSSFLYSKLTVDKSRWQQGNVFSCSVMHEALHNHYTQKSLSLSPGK

In the experiment with TNFβ, “concatameric fusion dimeric protein [TNFR1-TNFR1/Fc]2 (Fc fusion)” had an IC50 of cytotoxicity inhibition, L929 cells, TNFβ treated of 20 µg/mL. In the experiment with TNFα, this substance had an IC50 of cytotoxicity inhibition, L929 cells, TNFα treated of 9 µg/mL.

“concatameric fusion dimeric protein [TNFR2-TNFR2/Fc]2 (Fc fusion)” yielded an IC50 of cytotoxicity inhibition, L929 cells, TNFβ treated with TNFβ of 15 µg/mL. The substance further displayed an IC50 of cytotoxicity inhibition, L929 cells, TNFα treated with TNFα of 15 µg/mL.

Substance “simple fusion dimeric protein [TNFR1/Fc]2 (Fc fusion)” had an IC50 of cytotoxicity inhibition, L929 cells, TNFβ treated with TNFβ of 129 µg/mL. This substance showed an IC50 of cytotoxicity inhibition, L929 cells, TNFα treated with TNFα of 63 µg/mL.

“simple fusion dimeric protein [TNFR2/Fc]2 (Fc fusion)” displayed an IC50 of cytotoxicity inhibition, L929 cells, TNFβ treated with TNFβ of 469 µg/mL. For the same substance, in the experiment with TNFα, the IC50 of cytotoxicity inhibition, L929 cells, TNFα treated worked out at 189 µg/mL.
